Laboratory results reported in patent publication US20230241168A1 (ALPINE IMMUNE SCIENCES, published 2023).
Positions count from the first letter of the chain named. Names and notes keep the numbering of the source. Like-named read-outs stand apart in the source and are kept apart here. Each block holds one molecule with its values, some of them ahead of it. No end group written: not given here.

What was measured:
[1] = target: recombinant human APRIL (human) (UniProt O75888); assay: cell-based or functional assay; set-up: IC50 APRIL (Δ TACI 30-110-Fc) / IC50 BAFF (Δ TACI 30-110-Fc): unit not given beside the values
[2] = target: recombinant human BAFF (human) (UniProt Q9Y275); assay: cell-based or functional assay; set-up: IC50 APRIL (Δ TACI 30-110-Fc) / IC50 BAFF (Δ TACI 30-110-Fc): unit not given beside the values
[3] = target: recombinant human APRIL (human) (UniProt O75888); assay: cell-based or functional assay; set-up: IC50 APRIL (Δ Parental vTD) / IC50 BAFF (Δ Parental vTD): unit not given beside the values
[4] = target: recombinant human BAFF (human) (UniProt Q9Y275); assay: cell-based or functional assay; set-up: IC50 APRIL (Δ Parental vTD) / IC50 BAFF (Δ Parental vTD): unit not given beside the values
[5] = target: T1, human CD86 (human, UniProt P42081 24-329); assay: cell-based or functional assay
T1 sequence (looked up): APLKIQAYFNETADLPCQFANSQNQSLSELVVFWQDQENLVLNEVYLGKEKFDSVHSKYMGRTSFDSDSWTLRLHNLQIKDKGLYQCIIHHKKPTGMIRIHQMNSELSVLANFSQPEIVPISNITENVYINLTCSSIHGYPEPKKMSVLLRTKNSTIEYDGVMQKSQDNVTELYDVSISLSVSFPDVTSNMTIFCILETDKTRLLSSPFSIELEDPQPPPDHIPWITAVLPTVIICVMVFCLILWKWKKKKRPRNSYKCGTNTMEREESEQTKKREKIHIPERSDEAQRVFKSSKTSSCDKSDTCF

[6] = target: T2, human CD80 (human, UniProt P33681 35-288); assay: cell-based or functional assay
T2 sequence (looked up): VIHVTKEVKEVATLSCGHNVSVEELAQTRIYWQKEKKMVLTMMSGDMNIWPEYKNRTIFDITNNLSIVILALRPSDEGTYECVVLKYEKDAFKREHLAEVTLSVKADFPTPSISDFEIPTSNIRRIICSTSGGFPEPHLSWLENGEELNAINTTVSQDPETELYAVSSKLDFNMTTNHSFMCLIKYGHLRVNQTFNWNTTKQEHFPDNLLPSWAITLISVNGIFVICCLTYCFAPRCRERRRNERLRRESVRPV

[7] = target: T3, recombinant human APRIL (human, UniProt O75888 105-250, limits assumed); assay: cell-based or functional assay
T3 sequence (looked up): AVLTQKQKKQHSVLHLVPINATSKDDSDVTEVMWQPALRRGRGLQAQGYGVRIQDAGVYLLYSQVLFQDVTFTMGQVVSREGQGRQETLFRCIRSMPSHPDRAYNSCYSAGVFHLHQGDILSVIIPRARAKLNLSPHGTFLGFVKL

[8] = target: T4, recombinant human BAFF (human, UniProt Q9Y275 134-285); assay: cell-based or functional assay
[9] = target: T3, recombinant human APRIL; assay: cell-based or functional assay; remark: listed apart in the source
[10] = target: T4, recombinant human BAFF; assay: cell-based or functional assay; remark: listed apart in the source
[11] = target: T5, recombinant human APRIL (human, UniProt O75888 105-250, limits assumed); assay: told in the description with reference to Example 8 (Jurkat/NF-κB/TACI reporter blockade)
T5 construct: also called human APRIL (Tonbo Biosciences)
T5 sequence (looked up): T3 sequence (looked up)

[12] = target: T6, recombinant human BAFF (human, UniProt Q9Y275 134-285); assay: as above
T6 construct: also called human BAFF (BioLegend)

[13] = target: T7, human ICOSL (human, UniProt O75144 19-302); assay: flow cytometry, cells expressing human ICOSL
T7 construct: whole, on cells
T7 sequence (looked up): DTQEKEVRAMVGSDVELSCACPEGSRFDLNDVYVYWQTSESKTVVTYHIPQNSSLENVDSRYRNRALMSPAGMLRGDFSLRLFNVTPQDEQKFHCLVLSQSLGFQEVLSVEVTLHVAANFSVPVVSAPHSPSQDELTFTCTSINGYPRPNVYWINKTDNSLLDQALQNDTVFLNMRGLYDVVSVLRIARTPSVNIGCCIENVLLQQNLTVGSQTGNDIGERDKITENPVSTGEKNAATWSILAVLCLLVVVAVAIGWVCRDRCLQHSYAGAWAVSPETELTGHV

Molecule: BCMA WT-Fc (Fc fusion)
IC50 (nM) APRIL [1]: 183 nM
IC50 APRIL (Δ TACI 30-110-Fc) [1]: 0.05
IC50 (nM) BAFF [2]: 823 nM
IC50 BAFF (Δ TACI 30-110-Fc) [2]: 0.14
IC50 (nM) APRIL [3]: 1.03 nM
IC50 APRIL (Δ Parental vTD) [3]: 1
IC50 (nM) BAFF [4]: 0.995 nM
IC50 BAFF (Δ Parental vTD) [4]: 1

B1: CTLA-4 186-GSG4S-Fc-(G4S)4-BCMA 406 (Fc fusion)
chain: KAMHVAQPAVVLASSRGIASFVCEYASPWKATEVRVTVLRQADSQVTEVCAATYMMGNELTFLDDSICTGTSSGNQVNLTIQGLRAMDTGLYICKVEQMYPPPYLLGIGNGTQIYVIDPEPCPDSDGSGGGGSEPKSSDKTHTCPPCPAPEAEGAPSVFLFPPKPKDTLMISRTPEVTCVVVDVSHEDPEVKFNWYVDGVEVHNAKTKPREEQYNSTYRVVSVLTVLHQDWLNGKEYKCKVSNKALPAPIEKTISKAKGQPREPQVYTLPPSRDELTKNQVSLTCLVKGFYPSDIAVEWESNGQPENNYKTTPPVLDSDGSFFLYSKLTVDKSRWQQGNVFSCSVMHEALHNHYTQKSLSLSPGGGGGSGGGGSGGGGSGGGGSLQMAGQCSQNEYFDSLLLACIPCQLRCSSNTPPLTCQRYCNASVTNSVKGTNA
CD86 IC50 [5]: 8.1 nM
CD86 IC50 (Δ Parental CTLA-4) [5]: 1.3 ratio
CD80 IC50 [6]: 25.2 nM
CD80 IC50 (Δ Parental CTLA-4) [6]: 0.8 ratio
IC50 (nM) APRIL [7]: 0.997 nM
IC50 (nM) BAFF [8]: 0.49 nM
IC50 (nM) APRIL [9]: 269 nM
IC50 APRIL (Δ TACI 30-110-Fc) [9]: 0.07 ratio
IC50 (nM) BAFF [10]: 2630 nM
IC50 BAFF (Δ TACI 30-110-Fc) [10]: 0.46 ratio

B2: 528 TACI CRD2-Fc (Fc fusion, not shown: a dimerising Fc or GST)
chain: SLSCRKEQGKFYDHLLRDCISCASICGQHPKQCAYFCENKLRS
modifications: cysteine pairing not given here; also: Fc fusion, linker and Fc not given here
notes: Fc fusion; also called WT TACI-Fc containing only the CRD2 domain of TACI; TACI 68-110 Fc
binding result [11]: binds
binding result [12]: binds

B3: CTLA-4 186 GSG4S Fc (G4S)4 TACI 541 (Fc fusion)
chain: KAMHVAQPAVVLASSRGIASFVCEYASPWKATEVRVTVLRQADSQVTEVCAATYMMGNELTFLDDSICTGTSSGNQVNLTIQGLRAMDTGLYICKVEQMYPPPYLLGIGNGTQIYVIDPEPCPDSDGSGGGGSEPKSSDKTHTCPPCPAPEAEGAPSVFLFPPKPKDTLMISRTPEVTCVVVDVSHEDPEVKFNWYVDGVEVHNAKTKPREEQYNSTYRVVSVLTVLHQDWLNGKEYKCKVSNKALPAPIEKTISKAKGQPREPQVYTLPPSRDELTKNQVSLTCLVKGFYPSDIAVEWESNGQPENNYKTTPPVLDSDGSFFLYSKLTVDKSRWQQGNVFSCSVMHEALHNHYTQKSLSLSPGGGGGSGGGGSGGGGSGGGGSSLSCRKEQGEYYDHLLRDCISCASICGQHPKQCADFCENKLRS
CD86 IC50 [5]: 10.2 nM
CD86 IC50 (Δ Parental CTLA-4) [5]: 1.2 ratio
CD80 IC50 [6]: 56.9 nM
CD80 IC50 (Δ Parental CTLA-4) [6]: 1.7 ratio
IC50 (nM) APRIL [7]: 1.56 nM
IC50 (nM) BAFF [8]: 0.103 nM
IC50 (nM) APRIL [9]: 272 nM
IC50 APRIL (Δ TACI 30-110-Fc) [9]: 0.07 ratio
IC50 (nM) BAFF [10]: 1260 nM
IC50 BAFF (Δ TACI 30-110-Fc) [10]: 0.22 ratio

Now from value to molecule:

IC50 (nM) APRIL [3]: 9.17 nM
IC50 APRIL (Δ Parental vTD) [3]: 1
IC50 (nM) BAFF [4]: 2.58 nM
IC50 BAFF (Δ Parental vTD) [4]: 1
B4: TACI WT Fc (Fc fusion, not shown: a dimerising Fc or GST)
chain: VAMRSCPEEQYWDPLLGTCMSCKTICNHQSQRTCAAFCRSLSCRKEQGKFYDHLLRDCISCASICGQHPKQCAYFCENKLRS

CD86 IC50 [5]: 8.2 nM
CD86 IC50 (Δ Parental CTLA-4) [5]: 1 ratio
CD80 IC50 [6]: 33.6 nM
CD80 IC50 (Δ Parental CTLA-4) [6]: 1 ratio
MFI [13]: 570 MFI
B5: variant CTLA-4 ECD-Fc G29W/L98Q/Y105L (Fc fusion)
chain: KAMHVAQPAVVLASSRGIASFVCEYASPWKATEVRVTVLRQADSQVTEVCAATYMMGNELTFLDDSICTGTSSGNQVNLTIQGLRAMDTGLYICKVEQMYPPPYLLGIGNGTQIYVIDPEPCPDSDGSGGGGSEPKSSDKTHTCPPCPAPEAEGAPSVFLFPPKPKDTLMISRTPEVTCVVVDVSHEDPEVKFNWYVDGVEVHNAKTKPREEQYNSTYRVVSVLTVLHQDWLNGKEYKCKVSNKALPAPIEKTISKAKGQPREPQVYTLPPSRDELTKNQVSLTCLVKGFYPSDIAVEWESNGQPENNYKTTPPVLDSDGSFFLYSKLTVDKSRWQQGNVFSCSVMHEALHNHYTQKSLSLSPG

MFI [13]: 700 MFI
B6: variant CTLA-4 ECD-Fc M56T/L98Q/Y105L (Fc fusion)
chain: B5 chain with W29G, M56T

IC50 (nM) APRIL [9]: 215000 nM
IC50 APRIL (Δ TACI 30-110-Fc) [9]: 55.8 ratio
IC50 (nM) BAFF [10]: 2500 nM
IC50 BAFF (Δ TACI 30-110-Fc) [10]: 0.43 ratio
B7: Belimumab (antibody, V domains shown)
VH: QVQLQQSGAEVKKPGSSVRVSCKASGGTFNNNAINWVRQAPGQGLEWMGGIIPMFGTAKYSQNFQGRVAITADESTGTASMELSSLRSEDTAVYYCARSRDLLLFPHHALSPWGRGTMVTVSS
VL: SSELTQDPAVSVALGQTVRVTCQGDSLRSYYASWYQQKPGQAPVLVIYGKNNRPSGIPDRFSGSSSGNTASLTITGAQAEDEADYYCSSRDSSGNHWVFGGGTELTVLG
